CN117321082A (APOCOR LTD, dated 2023)

Legend:
[1] = target: T1, 全长人KLRG1 (full-length human KLRG1 on stably transfected CHOK1 cells) (human, UniProt Q96E93 1-195); test: FACS competition on CHOK1-hKLRG1 cells; competitor 0.3 uM human E-cadherin-ECD-FC-biotin, detected with streptavidin-Alexa 488
T1 construct: whole, on cells; the cell assays used full-length protein; also called hKLRG1; CHOK1-hKLRG1
T1 sequence (looked up): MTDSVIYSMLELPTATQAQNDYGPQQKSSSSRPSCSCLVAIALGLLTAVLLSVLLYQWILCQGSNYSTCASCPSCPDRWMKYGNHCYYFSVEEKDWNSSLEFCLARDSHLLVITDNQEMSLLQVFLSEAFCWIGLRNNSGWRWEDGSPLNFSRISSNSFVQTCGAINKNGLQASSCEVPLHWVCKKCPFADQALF

[2] = target: T1, 全长人KLRG1 (full-length human KLRG1 on …); test: FACS competition on CHOK1-hKLRG1 cells; competitor 0.3 uM human E-cadherin-ECD-FC-biotin (Example 7)
[3] = target: T1, 全长人KLRG1 (full-length human KLRG1 on …); test: FACS on CHOK1 cells expressing full-length human KLRG1, detected with anti-human IgG-Alexa 488

- IC50 [1]: 8.05 nM
- IC50 [2]: 5.3 nM
- EC50 [3]: 1.33 nM
B1: PA015 (antibody, human IgG1, kappa, V domains shown)
VH: QVTLRESGPALVKPTQTLTLTCTVSGFSLSTFGMGVGWIRQPPGKALEWLAHIWWDDDKWYELALKSRLTISKDTSKNQVVLTITNMDPVDTATYYCARVIYYGSRSAYYSMDYWGQGTTVTVSS
VL: DVVMTQTPLSLSVTPGQPASISCKSSQSIVHSNAHTYLEWYLQKPGQSPQLLIYKVSNRFSGVPDRFSGSGSGTDFTLKISRVEAEDVGVYYCFQGSHVPVTFGQGTKLEIKR
notes: also called PA015抗体; 抗KLRG1抗体
